The record followed here is patent US20240247072A1 (KEYMED BIOSCIENCES, published 2024).

Assay [1] concerns the target T1, cynomolgus monkey CD70, full length, on CHO cells (CHO-monkey CD70-D01) (cynomolgus monkey, UniProt A0A2K5WTU9 1-190).
T1 construct: whole, on cells; Stably transfected CHO cells; also called CHO-cynomolgus monkey CD70
T1 sequence: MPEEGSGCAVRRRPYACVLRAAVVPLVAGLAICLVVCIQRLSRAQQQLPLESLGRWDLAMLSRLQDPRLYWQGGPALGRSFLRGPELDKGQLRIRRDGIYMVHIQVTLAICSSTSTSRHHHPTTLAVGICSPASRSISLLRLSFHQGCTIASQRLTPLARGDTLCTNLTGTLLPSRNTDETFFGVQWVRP
Kind of assay: FACS (iQue) on CHO-cynomolgus monkey CD70 stably transfected cells, Alexa Fluor 647 anti-human IgG secondary antibody. On the procedure: (§1) The supernatant was discarded and the cells were gently tapped to be loosening. 50 μL of gradient diluted antibodies were added (antibody concentration: from 30 μg/mL, 3-fold dilution for 8 gradients) per well, and incubated at 4° C. for 1 hour. After incubation, 200 μL of 0.5% BSA was added to each well for washing 3 times. 50 μL/well of secondary antibody Alexa Fluro647 anti-human IgG (Jackson ImmunoResearch, Cat. No: 109-606-170) was added and incubated at 4° C. for 45 minutes. At the end of the incubation, each well was washed 3 times with 180 μL of 0.5% BSA and finally resuspended in 50 μL of PBS for iQue (Intellicyt) assay.

In assay [2] the target is T2, recombinant trimeric protein of human CD70 extracellular region (human CD70 mIgG Fc (knob) / mouse IgG Fc … (human, UniProt P01863 98-330 = IgG part)).
T2 construct: The ELISA and Octet texts say only 'recombinant CD70 protein' / 'CM352 antigen'; also called recombinant human CD70 protein; recombinant CD70 protein
T2 chain 1: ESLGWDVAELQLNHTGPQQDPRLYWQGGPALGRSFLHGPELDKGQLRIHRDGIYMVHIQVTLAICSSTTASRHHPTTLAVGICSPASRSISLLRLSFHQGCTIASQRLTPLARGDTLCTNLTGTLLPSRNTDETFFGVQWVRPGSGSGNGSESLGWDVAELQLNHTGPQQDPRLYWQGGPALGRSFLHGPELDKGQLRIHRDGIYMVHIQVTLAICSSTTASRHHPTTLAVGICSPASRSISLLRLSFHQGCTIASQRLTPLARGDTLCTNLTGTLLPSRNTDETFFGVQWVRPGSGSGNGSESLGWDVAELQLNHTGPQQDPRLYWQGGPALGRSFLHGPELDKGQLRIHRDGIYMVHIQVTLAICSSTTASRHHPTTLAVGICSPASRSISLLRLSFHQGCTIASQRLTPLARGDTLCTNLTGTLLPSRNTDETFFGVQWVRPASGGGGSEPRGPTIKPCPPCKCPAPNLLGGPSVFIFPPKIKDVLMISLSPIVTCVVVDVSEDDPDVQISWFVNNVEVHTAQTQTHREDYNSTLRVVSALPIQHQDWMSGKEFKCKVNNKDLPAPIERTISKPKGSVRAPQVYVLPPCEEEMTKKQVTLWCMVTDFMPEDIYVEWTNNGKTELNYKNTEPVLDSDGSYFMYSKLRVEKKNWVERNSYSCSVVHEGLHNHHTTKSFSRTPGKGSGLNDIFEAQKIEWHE
T2 chain 2: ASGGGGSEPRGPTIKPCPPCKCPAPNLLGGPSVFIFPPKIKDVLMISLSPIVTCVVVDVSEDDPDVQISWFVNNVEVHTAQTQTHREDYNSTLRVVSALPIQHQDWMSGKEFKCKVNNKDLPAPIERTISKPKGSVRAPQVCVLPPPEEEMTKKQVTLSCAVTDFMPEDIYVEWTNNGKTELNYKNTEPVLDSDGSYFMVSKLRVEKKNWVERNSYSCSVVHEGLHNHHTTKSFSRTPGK
Kind of assay: competition ELISA, chimeric IgG titrated, CD27 coated, biotin-CD70, human pair. For orientation: In an ELISA, binding on a coated surface is turned into a signal by an enzyme label.

The target in assay [3] is T3, human CD70, full length, on CHO cells (CHO-human CD70-B07) (human, UniProt P32970 1-193).
T3 construct: whole, on cells; Stably transfected CHO cells; also called CHO-CD70
T3 sequence (looked up): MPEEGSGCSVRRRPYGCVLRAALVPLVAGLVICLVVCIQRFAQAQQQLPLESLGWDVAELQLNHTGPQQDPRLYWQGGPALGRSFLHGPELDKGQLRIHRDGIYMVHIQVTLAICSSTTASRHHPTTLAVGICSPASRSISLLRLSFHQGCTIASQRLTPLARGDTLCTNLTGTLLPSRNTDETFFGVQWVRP
Kind of assay: FACS (iQue) on CHO-human CD70 stably transfected cells, Alexa Fluor 647 anti-human IgG secondary antibody. On the procedure:
as §1

Assay [4] concerns the target T1, cynomolgus monkey CD70, full length, on …. Kind of assay: flow cytometry, chimeric IgG on CHO-cynomolgus monkey CD70 cells. On the procedure:
Different cells in logarithmic growth phase were taken, blocked with 3% BSA for 30 minutes, and plated to a 96-well U-plate at 5×10⁴ cells/100 μL. The centrifuge was performed at 1100 rpm for 3 minutes. The supernatant was discarded and the cells were gently tapped to be loosening. 50 μL of gradient diluted antibody was added (antibody concentration: from 30 μg/mL, 3-fold dilution for 5 gradients) per well, and incubated at 4° C. for 1 hour. After incubation, 180 μL of 0.5% BSA was added to each well for washing 3 times. 30 μL/well of secondary antibody AlexaFluro647 anti-human IgG (Jackson Immuno Research, Cat. No: 109-606-170) was added and incubated at 4° C. for 45 minutes. At the end of the incubation, each well was washed 3 times with 180 μL of 0.5% BSA and finally resuspended in 50 μL of PBS for iQue (Intellicyt, USA) assay.
(In general: A flow cytometer gives signals particle by particle.)

Assay [5] concerns the target T4, recombinant cynomolgus monkey CD70 protein (cynomolgus monkey, UniProt A0A2K5WTU9 39-190).
T4 construct: it stands only in column heads ('Monkey', 'Cynomolgus Monkey CD70/CD27') and in result sentences; also called Monkey (ELISA)
T4 sequence: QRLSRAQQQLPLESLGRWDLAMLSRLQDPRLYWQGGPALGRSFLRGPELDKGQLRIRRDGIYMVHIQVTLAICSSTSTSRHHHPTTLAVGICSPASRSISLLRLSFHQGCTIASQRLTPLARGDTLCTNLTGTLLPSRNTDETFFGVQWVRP
Kind of assay: competition ELISA, chimeric IgG titrated, CD27 coated, biotin-CD70, cynomolgus pair. On the procedure: The recombinant CD27 protein was coated at 1 μg/mL in a 96-well microtiter plate and incubated overnight at 4° C. The next day, the plate was washed 3 times with PBS, added with 200 μL of 2% defatted dry milk/PBS, blocked at room temperature for 2 hours, and washed once with PBS. The purified chimeric antibody was divided to 12 concentration gradients starting at 100 nM and diluted in a 1:3 gradient. […] of the antibody was added per well and incubated at room temperature for 30 minutes. […] The plate was washed 3 times with PBST and PBS and dried by spinning. A secondary antibody Streptavidin-coupled horseradish peroxidase SA-HRP (BD bioscience, cat. No: 6222697) was diluted with 0.5% BSA in a ratio of 1:8000. 100 μL of the diluent was added into each well and incubated at room temperature for 30 minutes. The plate was washed 3 times with PBST and PBS and dried by spinning. 100 μl of color development solution (TMB solution, Sigma, Cat. No: T2885) was added into each well and protected from light at 37° C. for reaction. After the substrate developed moderately, 50 μl of H₂SO₄ was added into each well to terminate the reaction. The OD450 nm was determined by using an enzyme-linked detector within 30 minutes, and the data was collected. The results were calculated by using Graph Pad Prism 5 software.

Assay [6] deals with T3, human CD70, full length, on CHO cells …. The assay is described as follows: flow cytometry, chimeric IgG on CHO-human CD70 cells.
Assay [7] shares this target. The assay is described as follows: flow cytometry, humanized IgG1 on CHO-human CD70 cells. As to the method: as §1
Assay [8] has as its target T2, recombinant trimeric protein of human …. The assay is described as follows: cell-based or functional assay.
The target of assay [9] is T4, recombinant cynomolgus monkey CD70 …. Kind of assay: competition ELISA, humanized IgG1 titrated, CD27 coated, biotin-CD70, cynomolgus pair.
Assay [10] addresses FcγRIIIV158 on PBMC of FcγRIIIV158/V158 volunteers (human) (UniProt P08637). Kind of assay: cell-based or functional assay.
The target of assay [11] is FcγRIIIF158 on PBMC of FcγRIIIF158/F158 volunteers (human) (UniProt P08637). Kind of assay: cell-based or functional assay.
The target of assay [12] is FcγRIII F158 (CD16a receptor, low-affinity allele) (human) (UniProt P08637). The assay is described as follows: SPR (Biacore). On the technique in general: SPR reads the build-up and loss of mass on a sensor chip optically.
Assay [13] deals with FcγRIII V158 (CD16a receptor, high-affinity allele) (human) (UniProt P08637). The assay is described as follows: SPR (Biacore).
Assay [14] deals with T2, recombinant trimeric protein of human …. Kind of assay: competition ELISA, humanized IgG1 titrated, CD27 coated, biotin-CD70, human pair. As to the method:
The recombinant human CD27 protein was coated at 1 μg/mL in a 96-well microtiter plate and incubated overnight at 4° C. The next day, the plate was washed 3 times with PBS, added with 200 μL of 2% defatted dry milk/PBS, blocked at room temperature for 2 hours, and washed once with PBS. […] 30 μl of the antibody was added per well and incubated at room temperature for 30 minutes. […] The plate was washed 3 times with PBST and PBS and dried by spinning. A secondary antibody solution Streptavidin-coupled horseradish peroxidase SA-HRP (BD bioscience, Cat. No: 6222697) was diluted with 0.5% BSA in a ratio of 1:8000. 100 μL of the diluent was added into each well and incubated at room temperature for 30 minutes. The plate was washed 3 times with PBST and PBS and dried by spinning. […] of color development solution (TMB solution, Sigma, Cat. No: T2885) was added into each well and protected from light at 37° C. for reaction. After the substrate developed moderately, […] of H₂SO₄ was added into each well to terminate the reaction. The OD450 nm was determined using an enzyme-linked detector within 30 minutes, and the data was collected. The results were calculated by using Graph Pad Prism 5 software. See FIG. 10-1, 10-2, and Table 12 for the results.

In assay [15] the target is T1, cynomolgus monkey CD70, full length, on …. The assay is described as follows: flow cytometry, humanized IgG1 on CHO-cynomolgus monkey CD70 cells. As to the method:
as §1

Chain of FcγRIIIF158 on PBMC of FcγRIIIF158/F158 volunteers (human) (P08637 17-254): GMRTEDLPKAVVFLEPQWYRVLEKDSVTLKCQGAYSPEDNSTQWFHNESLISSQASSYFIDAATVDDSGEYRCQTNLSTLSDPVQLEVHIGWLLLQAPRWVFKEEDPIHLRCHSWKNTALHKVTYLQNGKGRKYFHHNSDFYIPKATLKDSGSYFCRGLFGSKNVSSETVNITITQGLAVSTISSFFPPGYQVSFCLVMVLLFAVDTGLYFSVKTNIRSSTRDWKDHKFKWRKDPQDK
Chain of FcγRIIIV158 on PBMC of FcγRIIIV158/V158 volunteers (human) (P08637 17-254 F176V): as the sequence (P08637 17-254) above, with F160V counted along it
Chain of FcγRIII V158 (CD16a receptor, high-affinity allele) (human) (P08637 17-208 F176V limits assumed): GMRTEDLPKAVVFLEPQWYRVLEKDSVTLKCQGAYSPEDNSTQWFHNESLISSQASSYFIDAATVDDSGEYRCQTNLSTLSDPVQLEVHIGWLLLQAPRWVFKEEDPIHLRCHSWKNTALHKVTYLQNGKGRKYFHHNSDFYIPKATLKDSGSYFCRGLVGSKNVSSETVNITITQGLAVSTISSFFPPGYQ
Chain of FcγRIII F158 (CD16a receptor, low-affinity allele) (human) (P08637 17-208 limits assumed): as the sequence (P08637 17-208 F176V limits assumed) above, with V160F counted along it

B1: 39H5 chimeric antibody (antibody, V domains shown)
VH: EIQLVQSGPELKKPGETVKISCKASGYTFTNYGMNWVKQAPGQGLKWMGWINTYTGEPTYADDFTGRFAFSLETSASTAYLQINNLKNEDMAAYFCAREEDYRYVFNYWGQGTTLTVSS
VL: DIQMIQSTSSLSASLGNRVTISCRASQDISNYLNWYQQKPDGTVKLLIYDTSRLHAGVPSRFSGSGSGTDYSLTISNLEQEDIATYFCQQGVTLPLTFGAGTKLEIK
As usually defined, the EC50 (read off the curve) is the concentration that produces a half-maximal response. For orientation: IC50 means the midpoint of a concentration-inhibition curve. Usually EC50 stands for the concentration needed to bring the measured effect to its halfway point. For the molecule B1, the “EC50 (read off the curve)” value in assay [1] and in assay [3] was approximately 3 nM each time. In addition, the IC50 in assay [2] amounted to 0.06 nM; in assay [5], 0.08 nM. Further, the EC50 in assay [4] was determined as 15.1 nM; in assay [6] it was 10.2 nM.

B2: humanized antibody Ab004 (IgG1 wild type) (antibody, V domains shown)
VH: QVQLVQSGSELKKPGASVKVSCKASGYTFTNYGMNWVRQAPGQGLEWMGWINTYTGEPTYADGFTGRFVFSLDTSASTAYLQISSLKAEDTAVYFCAREEDYRYVFNYWGQGTLVTVSS
VL: DIQMTQSPSSLSASVGDRVTITCQASQDISNYLNWYQQKPGKAPKLLIYDTSRLHAGVPSRFSGSGSGTDYTFTISSLQPEDIATYFCQQGVTLPLTFGQGTKLEIK
notes: also called Ab004 IgG1 wt; h39H5 VHv2 + h39H5 VKv1
Usually Kd stands for the equilibrium constant for the complex coming apart. In the case of B2, the EC50 is 2.15 nM in [7] and 3.39 nM in assay [15]. Also, the “Inhibition of IL-8 secretion IC50(nM), HT1080-human CD27 cells stimulated with recombinant human CD70” value in [8] came out at 11 nM. The IC50 in assay [9] turned out to be 0.05 nM; in assay [14] it was 0.04 nM. In assay [10], this molecule had an ADCC Killing EC50, Daudi targets, FcγRIIIV158 PBMC of 0.22 nM. Further, the ADCC Maximum killing rate, Daudi targets, FcγRIIIV158 PBMC in [10] worked out at 40%. In assay [11], this molecule came in with an ADCC Killing EC50, Daudi targets, FcγRIIIF158 PBMC of 0.23 nM. The same molecule gave an ADCC Maximum killing rate, Daudi targets, FcγRIIIF158 PBMC in assay [11] of 13%. Also, the values for the equilibrium dissociation constant (Kd) in assay [12] and in [13] were 1300 nM and 565 nM, respectively.
